Series [1] is described as follows: Delivery and clearance of sodium fluorescein from the suprachoroidal space in live rabbits (Example 5). The format is in vivo, rabbit. The conditions noted are these: SCS injection. Here is the method:
The delivery of a fluorescent molecule (sodium fluorescein) to the suprachoroidal space was evaluated using rabbits according to approved live animal experimental protocols. A one dimensional scan of the eye (through line of sight) was taken within the first five minutes after injection to determine the dispersion of the fluorescent molecule in the eye (FIG. 14). The y-axis indicates the fluorescent intensity (i.e., the concentration) and the x-axis represents the position in the eye from front (160) to back (0). Thus, the results illustrate that within the first 5 minutes after injection, the fluorescein had already flowed through the suprachoroidal space to the back of the eye. with some remaining at the initial insertion site.
Similar scans were taken to evaluate the rate of clearance of fluorescein from the suprachoroidal space over time (FIG. 15). The fluorescent intensity was measured in two regions of the eye (the suprachoroidal space and mid-vitreous region) over time. The results illustrate that the bulk of the material injected remains in the suprachoroidal space without passing into the mid-vitreous region and that the material substantially cleared the suprachoroidal space within 24 hours.

Series [2] in a line: Visual acuity of patients after suprachoroidal bevacizumab (Example 14). The format is in vivo, human. The protocol:
(§1) The safety and tolerabilty of a single microneedle injection of bevacizumab into the suprachoroidal space (SCS) using a micronocedle was evaluated. Four adult patients with choroidal neovascularization (CNV), secondary to wet age-related macular degeneration (AMD), were enrolled in a phase 1, single-center, open-label study. Each subject provided informed consent and was screened for eligibility. […] Treated patients remained in the clinic for 4 hours for observation and then retumed multiple times for follow-up during a 2 month period. Major safety examinations included intraocular pressure (IOP), angiograms, biomicroscopy, indirect ophthalmoscopy, fundus photography, optical coherence tomography (OCT), visual acuity (VA) (Table 8), and assessment of pain.

Series [3] in a line: Phase 1 safety and tolerability of suprachoroidal bevacizumab in patients with CNV secondary to wet AMD (Example 14). The format is in vivo, human. The protocol:
as §1

This is an account of results in patent US20180028516A1, “METHODS AND DEVICES FOR THE TREATMENT OF OCULAR DISEASES IN HUMAN SUBJECTS” (CLEARSIDE BIOMEDICAL, INC., priority 2012, published 2018).

Consider `O=C1OC2(c3ccc(O)cc3Oc3cc(O)ccc32)c2ccccc21` [fluorescein, sodium fluorescein], for which the “time to substantial clearance from the suprachoroidal space” value in series [1] (fluorescent intensity) is ≤ 24 h. Further, the “time for fluorescein to flow through the suprachoroidal space to the back of the eye” value in series [1] (one dimensional fluorescence scan) is ≤ 5 min.
Take “bevacizumab: humanized monoclonal antibody, angiogenesis inhibitor (Avastin)”: the “Visual Acuity” value in series [2] (Patient 1, 28 day post dose) is listed as 20/40; in series [2] (Patient 1, 56 day post dose), 20/40; in series [2] (Patient 1, Pre-does), 20/80; in series [2] (Patient 1, Screening), 20/40; in series [2] (Patient 2, 28 day post dose), 20/20; in series [2] (Patient 2, 56 day post dose) it was 20/20. In addition, the “Visual Acuity” value in series [2] (Patient 2, Pre-does) is listed as 20/40; in series [2] (Patient 2, Screening), 20/40; in series [2] (Patient 3, 28 day post dose), 20/250; in series [2] (Patient 3, 56 day post dose), 20/250; in series [2] (Patient 3, Pre-does), 20/320; in series [2] (Patient 3, Screening) it was 20/320. In addition, the “Visual Acuity” value is 20/400 in series [2] (Patient 4, 28 day post dose); 20/400 in series [2] (Patient 4, 56 day post dose); 20/400 in series [2] (Patient 4, Pre-does); 20/400 in series [2] (Patient 4, Screening). Further, the “effect on IOP, OCT or VA” value in series [3] (100 μL bevacizumab SCS, any subject) was “No negative effect”. The “adverse events related to bevacizumab or the method of administration” value in series [3] (100 μL bevacizumab SCS, ophthalmic examinations) was “no unexpected or serious adverse events”. Further, the “level of pain recorded for the administration” value in series [3] (100 μL bevacizumab SCS, topical anesthesia, four patients) is on record as “moderate”. Further, in series [3] (patient number 3, 56 days after injection vs before injection), the “intraretinal fluid (OCT)” value was “Decrease”. Besides, the “rescue therapy or reinjection” value in series [3] (two months following treatment) is on record as “No patients required rescue therapy or reinjection”.
